Experimental findings from patent publication US20050239141A1 are described below.

Test [1] deals with T1, rat CD5 antigen present on rat T cells (rat) (UniProt P51882).
T1 sequence (looked up): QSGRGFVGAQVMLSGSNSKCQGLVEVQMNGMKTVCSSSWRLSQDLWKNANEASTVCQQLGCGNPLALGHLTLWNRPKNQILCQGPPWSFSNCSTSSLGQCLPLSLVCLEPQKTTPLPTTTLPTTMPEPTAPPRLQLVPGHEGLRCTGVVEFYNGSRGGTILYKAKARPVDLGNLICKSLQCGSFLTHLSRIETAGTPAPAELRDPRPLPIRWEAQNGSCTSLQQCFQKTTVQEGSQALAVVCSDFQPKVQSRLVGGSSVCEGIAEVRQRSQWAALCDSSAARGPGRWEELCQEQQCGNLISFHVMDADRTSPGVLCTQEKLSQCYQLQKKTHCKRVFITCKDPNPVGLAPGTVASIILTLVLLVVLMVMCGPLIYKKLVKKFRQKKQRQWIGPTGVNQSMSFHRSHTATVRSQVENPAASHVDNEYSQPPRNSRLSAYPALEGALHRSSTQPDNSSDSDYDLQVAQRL
As to the kind of experiment: flow cytometry, spleen T cells of a rat 3 h after 0.5 mg/kg i.v. On the technique in general: In flow cytometry, cells or beads pass a laser one at a time.

In test [2] the target is T1, rat CD5 antigen present on rat T cells (rat). Kind of test: flow cytometry, lymph node T cells of a rat 3 h after 0.5 mg/kg i.v.
For test [3] the target is unchanged. Kind of test: flow cytometry, blood T cells of a rat 3 h after 0.5 mg/kg i.v.
Test [4] shares this target. As to the kind of experiment: flow cytometry, spleen T cells of a rat 3 h after 0.5 mg/kg i.v. (isotype matched negative control).
Test [5] has the same target. Kind of test: flow cytometry, blood T cells of a rat 3 h after 0.5 mg/kg i.v. (isotype matched negative control).
Test [6] shares this target. As to the kind of experiment: flow cytometry, lymph node T cells of a rat 3 h after 0.5 mg/kg i.v. (isotype matched negative control).

For OX19 MoAb (antibody), the % of CD4 cells also positive for mouse IgG1 is 84.8% in test [1], 96.2% in test [2] and 96.2% in test [3]. Besides, the % of CD8 cells also positive for mouse IgG1 in test [1] is 73.6%; in test [2], 96.8%; in test [3] it was 70.2%.

B1: MoAb H65 (antibody, V domains shown)
VH: QIQLVQSGPELKKPGETVKISCKASGYTFTNYGMNWVKQAPGKGLRWMGWINTHTGEPTYADDFKGRFAFSLETSASTAYLQINNLKNEDTATYFCTRRGYDWYFDVWGAGTTVTVSS
VL: DIKMTQSPSSMYASLGERVTITCKASQDINSYLSWFQQKPGKSPKTLIYRANRLVDGVPSRFSGSGSGQDYSLTISSLDYEDMGIYYCQQYDESPWTFGGGTKLEIK
Consider B1, for which the % of CD4 cells also positive for mouse IgG1 in test [4] was determined as 14.8%; in test [5], 6.7%; in test [6], 4.2%. Also, the % of CD8 cells also positive for mouse IgG1 stood at 20.6% in test [4], 5.7% in test [5] and 6.5% in test [6].
